{
  "source": "patent US20140141019A1",
  "about": "(INSERM INSTITUT NATIONALDE LA SENTE ET DE LA RECHERCHE …, published 2014)",
  "binders": {"B1": {"name": "mAb H3A-32 (purified human IgG) (antibody, V domains shown)", "VH": "EVQLVESGGGLVQPGGSLRLSCAASGFTFDDYAMHWVRQAPGKGLEWVSGISWNSGSIGYADSVKGRFTISRDNAKNSLYLQMNSLRAEDTAVYYCAREGQWPNYGMDVWGQGTTVTVSS", "VL": "not shown", "notes": "expressed as human IgG1 in transiently transfected HEK 293 cells, protein A purified"}, "B2": {"name": "mAb H4B-121 (purified human IgG) (antibody, V domains shown)", "VH": "B1 VH with G16R", "VL": "QSVLTQPPSVSAAPGQKVTISCPGSSSNIGNNYVSWYQQLPGTAPKLLIYDNNERPSGIPDRFSGSTSGTSATLDITDLQAEDEATYYCGAWDNTLGVYVLGTGTQLTVL", "notes": "expressed as human IgG1 in HEK 293 cells"}, "B3": {"name": "mAb H3A-76 (purified human IgG) (antibody, V domains shown)", "VH": "B1 VH with G16R, N77D", "VL": "QSVLTQPPSASGTPGQRVTISCSGSSSNIGSNSLNWYQQLPGTAPKLLIYSNNQRPPGVPDRFSGSRSGSSASLAISGLQSGDEGDYYCAAWDDSLKGYVFGTGTQLTVL", "notes": "as for B2"}, "B4": {"name": "mAb H4B-05 (purified human IgG) (antibody, V domains shown)", "VH": "B1 VH with G16R", "VL": "not shown", "notes": "as for B2"}, "B5": {"name": "mAb H3A-81 (purified human IgG) (antibody, V domains shown)", "VH": "B1 VH", "VL": "not shown", "notes": "as for B2"}, "B6": {"name": "Fab H4B-121 (Fab, V domains shown)", "VH": "B1 VH with G16R", "VL": "B2 VL", "notes": "Fab made in E. coli periplasm with a V5 tag and a C-terminal 6xHis tag"}, "B7": {"name": "Fab H3A-32 (Fab, V domains shown)", "VH": "B1 VH", "VL": "not shown", "notes": "Fab made in E. coli periplasm with a V5 tag and a C-terminal 6xHis tag; also called H3A-32 (Fab format)"}, "B8": {"name": "Fab H3A-76 (Fab, V domains shown)", "VH": "B1 VH with G16R, N77D", "VL": "B3 VL", "notes": "Fab made in E. coli periplasm with a V5 tag and a C-terminal 6xHis tag; also called H3A-76 (Fab format)"}, "B9": {"name": "Fab H3A-81 (Fab, V domains shown)", "VH": "B1 VH", "VL": "not shown", "notes": "Fab made in E. coli periplasm with a V5 tag and a C-terminal 6xHis tag; also called H3A-81 (Fab format)"}, "B10": {"name": "Fab H4B-05 (Fab, V domains shown)", "VH": "B1 VH with G16R", "VL": "not shown", "notes": "Fab made in E. coli periplasm with a V5 tag and a C-terminal 6xHis tag; also called H4B-05 (Fab format)"}, "B11": {"name": "Ab#6 (Merrimack Pharmaceuticals) (antibody, V domains shown)", "VH": "EVQLLESGGGLVQPGGSLRLSCAASGFTFSHYVMAWVRQAPGKGLEWVSSISSSGGWTLYADSVKGRFTISRDNSKNTLYLQMNSLRAEDTAVYYCTRGLKMATIFDYWGQGTLVTVSS", "VL": "QSALTQPASVSGSPGQSITISCTGTSSDVGSYNVVSWYQQHPGKAPKLIIYEVSQRPSGVSNRFSGSKSGNTASLTISGLQTEDEADYYCCSYAGSSIFVIFGGGTKVTVL"}, "B12": {"name": "U1-59 (Amgen/U3 Pharma-Daiichi Sankyo) (antibody, V domains shown)", "VH": "QVQLQQWGAGLLKPSETLSLTCAVYGGSFSGYYWSWIRQPPGKGLEWIGEINHSGSTNYNPSLKSRVTISVETSKNQFSLKLSSVTAADTAVYYCARDKWTWYFDLWGRGTLVTVSS", "VL": "not shown"}},
  "note": "Positions count from the first letter of the chain named. Names may count otherwise. Ends that are not written are not given here.",
  "data": [
    {"target": "T1, human HER4-Fc (recombinant human extracellular domain ErbB4/HER4 Fc chimera, R&D Systems) (human, UniProt Q15303 26-651)", "T1 construct": "extracellular domain; Bought protein; Fc part of the bought chimera not given", "T1 sequence (looked up)": "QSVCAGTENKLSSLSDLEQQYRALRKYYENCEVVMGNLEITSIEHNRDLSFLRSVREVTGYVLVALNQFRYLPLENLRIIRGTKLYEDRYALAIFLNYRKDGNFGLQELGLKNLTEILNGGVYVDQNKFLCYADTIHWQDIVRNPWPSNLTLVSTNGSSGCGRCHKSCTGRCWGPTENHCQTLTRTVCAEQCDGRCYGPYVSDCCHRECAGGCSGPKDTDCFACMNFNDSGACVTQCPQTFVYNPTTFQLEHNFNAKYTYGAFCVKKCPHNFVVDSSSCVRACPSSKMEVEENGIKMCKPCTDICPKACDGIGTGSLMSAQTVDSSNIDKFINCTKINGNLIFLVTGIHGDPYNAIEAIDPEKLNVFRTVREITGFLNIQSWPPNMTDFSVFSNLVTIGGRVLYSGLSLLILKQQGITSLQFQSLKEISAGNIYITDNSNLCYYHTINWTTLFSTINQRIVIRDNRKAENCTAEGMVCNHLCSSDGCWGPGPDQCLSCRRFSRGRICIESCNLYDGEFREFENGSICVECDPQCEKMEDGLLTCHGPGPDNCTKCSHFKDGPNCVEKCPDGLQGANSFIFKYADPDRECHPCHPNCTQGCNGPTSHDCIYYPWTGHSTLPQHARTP", "assay": "ELISA, coated HER4-Fc 50 ng", "from_the_text": "The bound IgG were detected by using HRP-F(ab′) 2 goat anti human IgG F(ab′)2 specific (Interchim).", "values": [
      {"binder": "B1", "binding result": "no binding (tested: 0.5 µg/ml)"},
      {"binder": "B2", "binding result": "no binding (tested: 0.5 µg/ml)"},
      {"binder": "B3", "binding result": "no binding (tested: 0.5 µg/ml)"},
      {"binder": "B4", "binding result": "no binding (tested: 0.5 µg/ml)"},
      {"binder": "B5", "binding result": "no binding (tested: 0.5 µg/ml)"}
    ]},
    {"target": "T2, mouse HER3-Fc (recombinant mouse extracellular domain ErbB3/HER3 Fc chimera, R&D Systems) (mouse, UniProt Q61526 20-641)", "T2 construct": "extracellular domain; Bought protein; also called murine HER3; Fc part of the bought chimera not given", "T2 sequence (Q61526 20-641, change not shown)": "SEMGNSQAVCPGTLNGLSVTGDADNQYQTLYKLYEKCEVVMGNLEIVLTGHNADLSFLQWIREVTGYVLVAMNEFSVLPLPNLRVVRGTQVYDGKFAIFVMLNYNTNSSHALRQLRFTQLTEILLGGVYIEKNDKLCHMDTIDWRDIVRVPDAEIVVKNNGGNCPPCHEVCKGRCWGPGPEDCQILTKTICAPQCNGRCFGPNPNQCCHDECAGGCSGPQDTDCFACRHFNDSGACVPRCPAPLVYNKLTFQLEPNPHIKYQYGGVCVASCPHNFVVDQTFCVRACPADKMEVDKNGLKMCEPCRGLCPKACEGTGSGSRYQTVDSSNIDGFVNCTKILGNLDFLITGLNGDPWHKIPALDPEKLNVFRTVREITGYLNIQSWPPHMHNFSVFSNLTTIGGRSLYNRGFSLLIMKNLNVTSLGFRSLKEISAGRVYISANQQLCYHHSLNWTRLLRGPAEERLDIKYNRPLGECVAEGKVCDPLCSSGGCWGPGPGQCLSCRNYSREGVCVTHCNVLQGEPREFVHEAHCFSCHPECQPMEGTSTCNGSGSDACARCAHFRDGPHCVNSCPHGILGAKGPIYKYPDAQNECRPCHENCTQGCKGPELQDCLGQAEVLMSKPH", "assay": "ELISA, coated mouse HER3-Fc 250 ng/ml", "values": [
      {"binder": "B1", "binding result": "binds"},
      {"binder": "B2", "binding result": "binds"},
      {"binder": "B3", "binding result": "binds"},
      {"binder": "B4", "binding result": "binds"},
      {"binder": "B5", "binding result": "binds"}
    ]},
    {"target": "T3, HER3 peptide 343-357 DFLITGLNGDPWHKI (human, also: cellulose-bound)", "T3 construct": "SPOT peptide", "T3 peptide": "Ac-DFLITGLNGDPWHKI", "assay": "SPOT peptide array, antibody at 1 µg/ml", "values": [
      {"binder": "B2", "binding result": "binds"}
    ]},
    {"target": "T1, human HER4-Fc (recombinant human …)", "assay": "ELISA, coated HER4-Fc 250 ng, anti-V5-HRP", "method": "The purified human Fabs at various concentrations were incubated for 2 hours at 37° C. in coated wells at 250 ng HER3-Fc (or HER4-Fc). The bound Fabs were detected by using HRP-labeled anti-V5 antibody (Invitrogen). Revelation was done at 450 nm in the presence of TMB (Sigma). The Fabs were tested simultaneously for binding on HER3-Fc, HER4-Fc and on Bovine serum Albumin as control.", "values": [
      {"binder": "B6", "binding result": "no binding"},
      {"binder": "B7", "binding result": "no binding"},
      {"binder": "B8", "binding result": "no binding"},
      {"binder": "B9", "binding result": "no binding"},
      {"binder": "B10", "binding result": "no binding"}
    ]},
    {"target": "T4, EGFR on transfected NIH 3T3 cells (human, UniProt P00533 25-1210)", "T4 construct": "whole, on cells", "assay": "flow cytometry, transfected NIH 3T3 cells", "method": "(§1) After three washes in PBS-BSA 0.1%, cells were incubated with the fluorescein-conjugated anti-human IgG-Fragment Fc specific (Sigma) at 4° C. in the dark for 45 min. Cells were then washed three times and suspended in PBS for analysis using an EPICS flow cytometer (Beckman-Coulter, Fullerton, Calif.).", "values": [
      {"binder": "B1", "binding result": "no binding"},
      {"binder": "B2", "binding result": "no binding"},
      {"binder": "B3", "binding result": "no binding"},
      {"binder": "B4", "binding result": "no binding"},
      {"binder": "B5", "binding result": "no binding"}
    ]},
    {"target": "T5, HER2 on transfected NIH 3T3 cells (human, UniProt P04626 23-1255)", "T5 construct": "whole, on cells", "assay": "flow cytometry, transfected NIH 3T3 cells", "method": "as §1", "values": [
      {"binder": "B1", "binding result": "no binding"},
      {"binder": "B2", "binding result": "no binding"},
      {"binder": "B3", "binding result": "no binding"},
      {"binder": "B4", "binding result": "no binding"},
      {"binder": "B5", "binding result": "no binding"}
    ]},
    {"target": "T6, EGFR/HER4 on transfected NIH 3T3 cells (human, UniProt P00533 25-1210; Q15303 26-1308)", "T6 construct": "whole, on cells; NIH 3T3 cells transfected with both EGFR and HER4", "assay": "flow cytometry, transfected NIH 3T3 cells", "method": "as §1", "values": [
      {"binder": "B1", "binding result": "no binding"},
      {"binder": "B2", "binding result": "no binding"},
      {"binder": "B3", "binding result": "no binding"},
      {"binder": "B4", "binding result": "no binding"},
      {"binder": "B5", "binding result": "no binding"}
    ]},
    {"target": "T4, EGFR on transfected NIH 3T3 cells", "assay": "flow cytometry, EGFR-transfected NIH-3T3 cells", "method": "as §1", "values": [
      {"binder": "B11", "geometric mean": 0.21},
      {"binder": "B12", "geometric mean": 0.25},
      {"binder": "B1", "geometric mean": 0.26},
      {"binder": "B2", "geometric mean": 0.33},
      {"binder": "B3", "geometric mean": 0.24},
      {"binder": "B4", "geometric mean": 0.28},
      {"binder": "B5", "geometric mean": 0.26}
    ]},
    {"target": "T5, HER2 on transfected NIH 3T3 cells", "assay": "flow cytometry, HER2-transfected NIH-3T3 cells", "method": "as §1", "values": [
      {"binder": "B11", "geometric mean": 0.35},
      {"binder": "B12", "geometric mean": 0.42},
      {"binder": "B1", "geometric mean": 0.44},
      {"binder": "B2", "geometric mean": 0.56},
      {"binder": "B3", "geometric mean": 0.52},
      {"binder": "B4", "geometric mean": 0.41},
      {"binder": "B5", "geometric mean": 0.5}
    ]},
    {"target": "T7, HER3 receptor on cells (HER3-transfected NIH 3T3 fibroblasts; SKBR3 cells; BxPC3 cells) (human, UniProt P21860 20-1342)", "T7 construct": "whole, on cells; also called ErbB3", "assay": "flow cytometry, HER3-transfected NIH-3T3 cells", "method": "as §1", "values": [
      {"binder": "B11", "geometric mean": 7.77},
      {"binder": "B12", "geometric mean": 9.32},
      {"binder": "B1", "geometric mean": 10.5},
      {"binder": "B2", "geometric mean": 12.3},
      {"binder": "B3", "geometric mean": 11.5},
      {"binder": "B4", "geometric mean": 7.85},
      {"binder": "B5", "geometric mean": 10.6}
    ]},
    {"target": "T6, EGFR/HER4 on transfected NIH 3T3 cells", "assay": "flow cytometry, EGFR/HER4-transfected NIH-3T3 cells", "method": "as §1", "values": [
      {"binder": "B11", "geometric mean": 0.51},
      {"binder": "B12", "geometric mean": 0.59},
      {"binder": "B1", "geometric mean": 0.53},
      {"binder": "B2", "geometric mean": 0.67},
      {"binder": "B3", "geometric mean": 0.53},
      {"binder": "B4", "geometric mean": 0.52},
      {"binder": "B5", "geometric mean": 0.53}
    ]},
    {"target": "T8, HER2/HER3 complex on transfected NIH 3T3 cells (human, UniProt P04626 23-1255; P21860 20-1342)", "T8 construct": "whole, on cells; NIH 3T3 cells transfected with both HER2 and HER3; also called HER2-HER3 heterodimer", "assay": "flow cytometry, HER2/HER3-transfected NIH-3T3 cells", "method": "as §1", "values": [
      {"binder": "B11", "geometric mean": 14.1},
      {"binder": "B12", "geometric mean": 15.5},
      {"binder": "B1", "geometric mean": 68.8},
      {"binder": "B2", "geometric mean": 70.4},
      {"binder": "B3", "geometric mean": 66.6},
      {"binder": "B4", "geometric mean": 13.3},
      {"binder": "B5", "geometric mean": 68.5}
    ]}
  ]
}
